# Test results taken from the supplement of paper PMC10598134.
# ± gives the standard deviation.
# Experiment: collision cross section of modified peptide (TIMS, N2, iRT-aligned); higher = larger / more extended gas-phase ion
# Outline: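 Values are averages of 1–3 technical replicates of the most abundant feature for each charge state. Collision cross section was obtained from the Mason-Schamp equation after 1/K0 calibration with three reference ions and run-wise alignment to the median iRT peptide deviation. Synthetic peptide pools (iRT standard spiked 1:40) were separated on a 120-min nanoflow C18 gradient at 60 °C, analysed on a timsTOF Pro/HT (dda-PASEF, nitrogen, ~2.4 mbar) and identified with MaxQuant.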
# [1] = charge state: 2, modification: Dimethyl (K)
# [2] = charge state: 3, modification: Dimethyl (K)
# [3] = charge state: 2, modification: Butyryl
# [4] = charge state: 2, modification: Crotonyl
# [5] = charge state: 2, modification: Acetyl (K)
# [6] = charge state: 2, modification: Biotin
# [7] = charge state: 2, modification: Malonyl
# [8] = charge state: 3, modification: Trimethyl (K)
# [9] = charge state: 2, modification: Nitro (Y)
# [10] = charge state: 2, modification: Hydroxyproline
# [11] = charge state: 3, modification: Hydroxyproline
# [12] = charge state: 3, modification: Malonyl
# [13] = charge state: 3, modification: Butyryl
# [14] = charge state: 3, modification: Biotin
# [15] = charge state: 2, modification: Methyl (K)
# [16] = charge state: 3, modification: Methyl (K)
# [17] = charge state: 2, modification: hydroxyisobutyryl
# [18] = charge state: 2, modification: HexNAc (ST)
# [19] = charge state: 2, modification: Formyl
# [20] = charge state: 2, modification: GlyGly (K)
# [21] = charge state: 3, modification: GlyGly (K)
# [22] = charge state: 2, modification: Succinyl
# [23] = charge state: 3, modification: Succinyl
# [24] = charge state: 3, modification: Formyl
# [25] = charge state: 2, modification: Glutarylation
# [26] = charge state: 2, modification: Methyl (R)
# [27] = charge state: 3, modification: Methyl (R)
# [28] = charge state: 2, modification: Citrullination (R)
# [29] = charge state: 3, modification: Citrullination (R)
# [30] = charge state: 3, modification: hydroxyisobutyryl
substance,measurement,setting,value
GEVQVSDKER [_GEVQVSDK(Dimethyl (K))ER_],collision cross section,[1],362.93 ± 0.58 Å²
same,collision cross section,[2],422.58 ± 1.6 Å²
KFGVLSDNFK [_K(Butyryl)FGVLSDNFK_],collision cross section,[3],377.44 ± 0.84 Å²
LLEQKTQESQK [_LLEQK(Crotonyl)TQESQK_],collision cross section,[4],398.38 ± 1.1 Å²
SGFGKFER [_SGFGK(Acetyl (K))FER_],collision cross section,[5],331.68 ± 1.9 Å²
LEQVEKELLR [_LEQVEK(Biotin)ELLR_],collision cross section,[6],410.78 Å²
DYSSGFGGKYGVQADR [_DYSSGFGGK(Malonyl)YGVQADR_],collision cross section,[7],435.88 ± 0.59 Å²
DTGEKLTVAENEAETK [_DTGEK(Trimethyl (K))LTVAENEAETK_],collision cross section,"charge state: 2, modification: Trimethyl (K)",443.08 Å²
same,collision cross section,[8],490.09 ± 1.8 Å²
YEATSVQQK [_Y(Nitro (Y))EATSVQQK_],collision cross section,[9],342.71 ± 0.55 Å²
GHPGPPGPPGEQGLPGLAGK [_GHPGPPGPP(Hydroxyproline)GEQGLPGLAGK_],collision cross section,[10],440.72 ± 0.83 Å²
same,collision cross section,[11],495.73 ± 18 Å²
GSLGAQKLANTCFNEIEK [_GSLGAQK(Malonyl)LANTCFNEIEK_],collision cross section,[7],466.18 Å²
same,collision cross section,[12],511.38 Å²
FSAYIKNSNPALNDNLEK [_FSAYIK(Butyryl)NSNPALNDNLEK_],collision cross section,[3],487.55 ± 1 Å²
same,collision cross section,[13],548.32 ± 1.1 Å²
PSVGSQSNQAGQGKR [_PSVGSQSNQAGQGK(Biotin)R_],collision cross section,[6],421.78 ± 0.67 Å²
same,collision cross section,[14],480.61 ± 0.34 Å²
IISSIEQKEENK [_IISSIEQK(Methyl (K))EENK_],collision cross section,[15],408.26 ± 2.5 Å²
same,collision cross section,[16],450.18 ± 5 Å²
LEKTIDDLEEK [_LEK(hydroxyisobutyryl)TIDDLEEK_],collision cross section,[17],411.13 ± 0.32 Å²
TSAVSSQANSQPPVQVSVK [_TSAVSSQANSQPPVQVS(HexNAc (ST))VK_],collision cross section,[18],471.02 Å²
GTISAPGKVVTAAAQAK [_GTISAPGK(Biotin)VVTAAAQAK_],collision cross section,[6],458.66 ± 0.47 Å²
same,collision cross section,[14],550.8 ± 0.34 Å²
DKALPLEAEVAPVK [_DK(Formyl)ALPLEAEVAPVK_],collision cross section,[19],412.02 ± 0.74 Å²
AAINQKLIETGER [_AAINQK(Formyl)LIETGER_],collision cross section,[19],399.86 ± 0.2 Å²
TEVLSPNSKVESK [_TEVLSPNSK(GlyGly (K))VESK_],collision cross section,[20],404.73 ± 5.7 Å²
same,collision cross section,[21],492.13 ± 0.88 Å²
LQEKVESAQSEQK [_LQEK(Methyl (K))VESAQSEQK_],collision cross section,[15],410.87 ± 2 Å²
same,collision cross section,[16],480.74 ± 20 Å²
LQEKVESAQSEQK [_LQEK(Biotin)VESAQSEQK_],collision cross section,[6],433.03 ± 0.23 Å²
same,collision cross section,[14],526.98 ± 0.34 Å²
SPDEAYAIAKK [_SPDEAYAIAK(Succinyl)K_],collision cross section,[22],374.28 ± 0.24 Å²
same,collision cross section,[23],452.6 ± 2.6 Å²
VGIDTPDIDIHGPEGKLK [_VGIDTPDIDIHGPEGK(Trimethyl (K))LK_],collision cross section,[8],543.29 ± 0.9 Å²
YVHADAPTNK [_Y(Nitro (Y))VHADAPTNK_],collision cross section,[9],352.73 ± 0.72 Å²
same,collision cross section,"charge state: 3, modification: Nitro (Y)",417.54 ± 1.2 Å²
KITESVAETAQTIK [_KITESVAETAQT(HexNAc (ST))IK_],collision cross section,[18],451.91 ± 0.56 Å²
same,collision cross section,"charge state: 3, modification: HexNAc (ST)",504.11 ± 1.1 Å²
FSAYIKNSNPALNDNLEK [_FSAYIK(Biotin)NSNPALNDNLEK_],collision cross section,[6],499.7 ± 0.61 Å²
same,collision cross section,[14],526.24 Å²
PGPVGPPGSGGLK [_PGPVGPP(Hydroxyproline)GSGGLK_],collision cross section,[10],349.24 ± 3.9 Å²
AYPLADAHLTK [_AY(Nitro (Y))PLADAHLTK_],collision cross section,[9],382.67 ± 0.55 Å²
FDDTNPEKEEAK [_FDDTNPEK(Formyl)EEAK_],collision cross section,[19],390.88 ± 0.55 Å²
same,collision cross section,[24],435.1 Å²
ISALQGKLSK [_ISALQGK(Biotin)LSK_],collision cross section,[6],376.95 ± 2.2 Å²
VLTANSNPSSPSAAKR [_VLTANSNPSSPSAAK(Malonyl)R_],collision cross section,[7],426.78 ± 1.6 Å²
same,collision cross section,[12],452.99 Å²
SKLLFSNTAAQK [_SK(Gluratylation)LLFSNTAAQK_],collision cross section,[25],403.03 ± 0.5 Å²
ILDLKTGTVK [_ILDLK(Acetyl (K))TGTVK_],collision cross section,[5],355.21 ± 0.89 Å²
IQTKAGEATVK [_IQTK(Propionyl)AGEATVK_],collision cross section,"charge state: 2, modification: Propionyl",369.17 ± 0.33 Å²
SSGPGGQNVNKVNSK [_SSGPGGQNVNK(Biotin)VNSK_],collision cross section,[6],422.28 ± 2 Å²
same,collision cross section,[14],467.62 ± 0.34 Å²
HELQANCYEEVKDR [_HELQANCYEEVK(Malonyl)DR_],collision cross section,[12],477.83 ± 2.4 Å²
DESFLGKLGGTLAR [_DESFLGK(Succinyl)LGGTLAR_],collision cross section,[22],416.2 ± 0.36 Å²
same,collision cross section,[23],490.1 ± 2.1 Å²
VSFLSALEEYTK [_VSFLSALEEY(Nitro (Y))TK_],collision cross section,[9],400.94 ± 0.73 Å²
SSFAYKDQNENR [_SSFAYK(Biotin)DQNENR_],collision cross section,[6],421.15 ± 1.9 Å²
same,collision cross section,[14],490.01 ± 0.34 Å²
VLATQPGPGRGR [_VLATQPGPGR(Methyl (R))GR_],collision cross section,[26],376.85 ± 0.74 Å²
same,collision cross section,[27],455.74 ± 9.5 Å²
GPKGQQGEPGPK [_GPKGQQGEP(Hydroxyproline)GPK_],collision cross section,[10],357.43 ± 1.4 Å²
same,collision cross section,[11],444.16 ± 2 Å²
VRFHNPR [_VR(Citrullination (R))FHNPR_],collision cross section,[28],325.95 ± 14 Å²
same,collision cross section,[29],406.17 Å²
TLDEILQEKK [_TLDEILQEK(Butyryl)K_],collision cross section,[3],383.05 ± 1.3 Å²
same,collision cross section,[13],449.71 ± 2 Å²
SPDEAYAIAKK [_SPDEAYAIAK(Dimethyl (K))K_],collision cross section,[1],376.23 ± 0.37 Å²
same,collision cross section,[2],437.31 ± 0.63 Å²
DYSSGFGGKYGVQADR [_DYSSGFGGK(Gluratylation)YGVQADR_],collision cross section,[25],441.26 ± 0.95 Å²
SYSVGASGSSSR [_SY(Phospho (Y))SVGASGSSSR_],collision cross section,"charge state: 2, modification: Phospho (Y)",356.68 ± 0.65 Å²
SLEEEGAAHSGKR [_SLEEEGAAHSGK(Methyl (K))R_],collision cross section,[15],413.71 ± 2.6 Å²
same,collision cross section,[16],459.06 ± 3.1 Å²
SGGRGVSVSSAR [_SGGR(Methyl (R))GVSVSSAR_],collision cross section,[26],362.59 ± 13 Å²
same,collision cross section,[27],443.44 ± 0.81 Å²
IHVQSSSDSSDEPAEKR [_IHVQSSSDSSDEPAEK(Biotin)R_],collision cross section,[14],513.52 Å²
FSAYIKNSNPALNDNLEK [_FSAYIK(Dimethyl (K))NSNPALNDNLEK_],collision cross section,[2],510.58 ± 2.9 Å²
SLGEPAAGEGSAKR [_SLGEPAAGEGSAK(Biotin)R_],collision cross section,[6],403.03 Å²
LEQVEKELLR [_LEQVEK(Gluratylation)ELLR_],collision cross section,[25],392.7 ± 0.12 Å²
ASNAAVKLAESK [_ASNAAVK(Malonyl)LAESK_],collision cross section,[7],371.16 ± 0.62 Å²
LFVGGIKEDTEEHHLR [_LFVGGIK(Methyl (K))EDTEEHHLR_],collision cross section,[16],545.41 Å²
PRTPTAPAVNLAGAR [_PR(Citrullination (R))TPTAPAVNLAGAR_],collision cross section,[28],411.43 ± 0.98 Å²
same,collision cross section,[29],471.47 ± 0.76 Å²
VLDSGAPIKIPVGPETLGR [_VLDSGAPIK(Gluratylation)IPVGPETLGR_],collision cross section,[25],465.83 ± 1.5 Å²
same,collision cross section,"charge state: 3, modification: Glutarylation",505.05 ± 1 Å²
DVNAAIAAIKTK [_DVNAAIAAIK(Biotin)TK_],collision cross section,[6],423.85 Å²
GGPGSTLSFVGKR [_GGPGSTLSFVGK(Crotonyl)R_],collision cross section,[4],386.64 ± 0.27 Å²
same,collision cross section,"charge state: 3, modification: Crotonyl",427.61 ± 1.6 Å²
SDDESSQKDIK [_SDDESSQK(Methyl (K))DIK_],collision cross section,[15],375.97 ± 0.26 Å²
same,collision cross section,[16],439.66 ± 3.3 Å²
SDDESSQKDIK [_SDDESSQK(GlyGly (K))DIK_],collision cross section,[20],380.21 ± 0.89 Å²
same,collision cross section,[21],442.7 ± 0.74 Å²
SGKFTQQDIDEAK [_SGK(Succinyl)FTQQDIDEAK_],collision cross section,[22],414.39 ± 0.54 Å²
ASDTSSETVFGKR [_ASDTSSETVFGK(Formyl)R_],collision cross section,[19],390.61 ± 0.41 Å²
DASTLQSQKAEGTGDAK [_DASTLQSQK(hydroxyisobutyryl)AEGTGDAK_],collision cross section,[17],441.13 ± 0.33 Å²
same,collision cross section,[30],514.99 ± 2.1 Å²
TEVLSPNSKVESK [_TEVLSPNSK(hydroxyisobutyryl)VESK_],collision cross section,[17],419.54 ± 0.31 Å²
same,collision cross section,[30],455.3 ± 1.9 Å²
ANLEKAQAELVGTADEATR [_ANLEK(Formyl)AQAELVGTADEATR_],collision cross section,[19],471.04 ± 1.4 Å²
same,collision cross section,[24],566.89 ± 0.82 Å²
LEEVTGKLQVAR [_LEEVTGK(Biotin)LQVAR_],collision cross section,[6],414.01 ± 0.23 Å²
same,collision cross section,[14],494.02 ± 0.34 Å²
